Laboratory results published in patent publication US7410774B1, “Compounds modulating sister chromatid separation and method for identifying same” (Boehringer Ingelheim International GmbH, priority 1999, dated 2008).
Substitutions are numbered along the chain they refer to.

T1: Purified recombinant Scc1 with C-terminal FLAG epitope, from baculovirus-infected insect cells, unphosphorylated, Q12158
T1 chain: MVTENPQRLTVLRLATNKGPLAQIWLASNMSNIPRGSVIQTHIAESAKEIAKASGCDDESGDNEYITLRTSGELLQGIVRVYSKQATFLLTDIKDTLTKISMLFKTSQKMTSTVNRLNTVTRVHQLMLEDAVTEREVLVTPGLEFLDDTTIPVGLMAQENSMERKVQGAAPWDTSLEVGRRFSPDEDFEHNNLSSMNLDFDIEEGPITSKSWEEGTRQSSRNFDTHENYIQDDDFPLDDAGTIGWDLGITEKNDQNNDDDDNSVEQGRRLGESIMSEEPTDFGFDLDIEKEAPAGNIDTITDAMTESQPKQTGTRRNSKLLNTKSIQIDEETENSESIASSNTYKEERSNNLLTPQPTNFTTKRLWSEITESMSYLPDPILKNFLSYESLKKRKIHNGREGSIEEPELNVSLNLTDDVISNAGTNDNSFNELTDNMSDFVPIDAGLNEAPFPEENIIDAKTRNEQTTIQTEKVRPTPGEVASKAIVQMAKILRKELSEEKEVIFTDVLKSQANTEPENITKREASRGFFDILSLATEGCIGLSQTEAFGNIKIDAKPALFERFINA

T2: Purified recombinant Scc1 with C-terminal FLAG epitope, from okadaic acid treated insect cells, mitotically phosphorylated form, Q12158
T2 chain: T1 chain

T3: Scc1p R180D R268D double mutant, HA tagged (non-cleavable Scc1p), Q12158
T3 chain: T1 chain with R180D, R268D

T4: Scc1p tagged with multiple HA epitopes, chromatin-bound (chromatin of nocodazole-arrested yeast), Q12158
T4 chain: T1 chain

T5: Scc1p tagged with myc epitopes at the C-terminus (endogenous wild type), Q12158
T5 chain: T1 chain

T6: Scc1p with arginine 268 mutated to aspartic acid, HA tagged, Q12158
T6 chain: T1 chain with R268D

B1: Esp1p (yeast separin), wild type, overproduced from the GAL1-10 promoter in yeast cell extract (protein)
chain: MMVKQEEPLNEISPNTPMTSKSYLLNDTLSKVHHSGQTRPLTSVLSGDASSNSIGILAMHNNIIRDFTKIASNNIDLAIEDITTVDHSLNSIYSLLKSHHMWGHINSTVKQHLMIIVKLINNNALGLASSEIIFLFNETNLFQAHSLKNILLADFSTWNDYYLSNLKILALQIILKRKLVDEYLPHILELFSHDKRYLLKDPNLKAHALTKIVLSFFSVTTSCKVLFGLKFLQYIKQFKLPFKKFISNITVECFSKNLLHKNYLEMGPNKIYLNSFYLSYSMLYDGLDKIMLLDILSYEETTEVQRAIKSKKEFNEYCNMSENRLLWSCISVDDLNVILENATNFLQNKGKHISATLKCLVCLWSTIRLEGLPKNKDILRQFDCTVIYINSNIKSINDESAAALLSELLGVLSEICIDYKEPKRLSNIISVLFNASVLFKSHSFLLKTANLEISNVLISNDSKTSHRTILKFEKFISSAQSAQKKIEIFSCLFNVYCMLRNDTLSFVFDFCQNAFIHCFTRLKITKFIEFSNSSEIMLSVLYGNSSIENIPSENWSQLSRMIFCSLRGIFDLDPLELNNTFDKLHLLNKYELLIRIVYLLNLDMSKHLTTNLSKITKLYINKWLQKSDEKAERISSFEMDFVKMLLCYLNFNNFDKLSIELSLCIKSKEKYYSSIVPYADNYLLEAYLSLYMIDDALMMKNQLQKTMNLSTAKIEQALLHASSLINVHLWDSDLTAFQIYFGKTLPAMKPELFDINNDHNLPMSLYIKVILLNIKIFNESAKLNIKAGNVISAVIDCRKAQNLALSLLKKKNKLSQGSRLALLKSLSFSFFQLIKIHIRIGSARDCEFYSKELSRIISDLEEPIIVYRCLHFLHRYYMITEQTCLQNITLGKANKAFDYLDAEADITSLTMFLYDNKEFVKLEQSLVLYFGDQLEKTFLPNLWKLHLGKDIDDSICLSEYMPKNVINRVHNMWQKVMSQLEEDPFFKGMFESTLGIPSSLPVIPSTMPNNILKTPSKHSTGLKLCDSPRSSSMTPRGKNIRQKFDRIAAISKLKQMKELLESLKLDTLDNHELSKISSLSSLTLTILSNITSIHNAESSLITNFSLTDLPRHMPLLFDKVLNNIDNKNYREFRVSSLIAPNNISTITESIRVSAAQKDLMESNLNINVITIDFCPITGNLLLSKLEPRRKRRTHLRLPLIRSNSRDLDEVHLSFPEATKKLLSIINESNQTTSVEVTNKIKTREERKSWWTTRYDLDKRMQQLLNNIENSWFNGVQGFFSPEVVDNSLFEKFKDKFYEILHQNLPSRKLYGNPAMFIKVEDWVIELFLKLNPQEIDFLSKMEDLIYFVLDILLFHGEENAYDEIDFSMLHVQLEEQIKKYRATMTTNSIFHTFLVVSSSCHLFPWECLSFLKDLSITRVPSYVCLNKLLSRFHYQLPLQVTIEDNISMILNPNGDLSRTESKFKGMFQKIIDAKPSSQLVMNEKPEEETLLKMLQNSNLFVYIGHGGGEQYVRSKEIKKCTKIAPSFLLGCSSAAMKYYGKLEPTGTIYTYLLGGCPMVLGNLWDVTDKDIDKFSEELFEKMGFRCNTDDLNGNSLSVSYAVSKSRGVCHLRYLNGAAPVIYGLPIKFVS

Assays:
HeLa cells [1] = experiment: SCC1 cleavage and securin degradation in synchronized HeLa cells released into the cell cycle in the presence of nocodazole; type: cell-based, human; conditions: double-thymidine synchronized, immunoblot
Procedure: For cell cycle synchronization, a double-thymidine treatment was used. HeLa cells were first treated with 2 mM thymidine for 18 h. Subsequently, cells were washed with PBS, fresh medium was added and the cells were grown for another 8 h. Then the cells were treated again with 2 mM thymidine for 18 h, subsequently washed and incubated in fresh medium. Samples were taken at different time points. Samples were splitted and used for FACscan analysis and for immunoblotting. Cell extracts were made with glass-teflon potters in ice cold buffer containing 50 mM Tris pH 7.7, 100 mM NaCl, 20 mM b-glycerophosphate, 5 mM MgCl2, 1 mM NaF, 0.1-0.2% Triton X-100, 10% Glycerol, 1 mM DTT and protease inhibitors).
In some experiments logarithmically growing HeLa cells were treated with 330 nM nocodazole dissolved in 0.1% DMSO for 18 hours, or cells synchronized by double-thymidine treatment were released into nocodazole-containing medium for different periods of time. […]
HeLa cells stably expressing SCC1-myc were synchronized by double-thymidine treatment and were released into the cell cycle in the presence of either DMSO (results shown in FIGS. 11A and C) or nocodazole dissolved in DMSO (results shown in FIGS. 11B and D). […] Cells were analyzed by FACsan (FIGS. 11A and B) and by immunoblotting of whole cell extracts using the indicated antibodies (FIGS. 11C and D). […]

HeLa cells [2] = experiment: Association of human SCC1 with chromatin (quantitative immunoblotting of chromatin and supernatant fractions); type: cell-based; conditions: HeLa cells arrested in metaphase by nocodazole (56% in logarithmically growing cells)
Procedure: In some experiments logarithmically growing HeLa cells were treated with 330 nM nocodazole dissolved in 0.1% DMSO for 18 hours, or cells synchronized by double-thymidine treatment were released into nocodazole-containing medium for different periods of time. In control experiments 0.1% DMSO was added without nocodazole. Chromatin and supernatant fractions were prepared from HeLa cells that were either growing logarithmically (log) or were arrested in metaphase with nocodazole (noc). Proteins from equivalent aliquots of these fractions were separated by SDS-PAGE and analyzed for the presence of SCC1 by immunoblotting using radiolabeled antibodies (FIG. 8, top panel), The intensities of the SCC1 bands were quantitated (FIG. 8, bottom panel).

[3] = biological target: T1, Purified recombinant Scc1 with …
[4] = biological target: T2, Purified recombinant Scc1 with …
[5] = biological target: T3, Scc1p R180D R268D double mutant, HA …
[6] = biological target: T4, Scc1p tagged with multiple HA epitopes, …
[7] = biological target: T5, Scc1p tagged with myc epitopes at the …
[8] = biological target: T6, Scc1p with arginine 268 mutated to …

Molecule	cleavage of SCC1 (HeLa cells [1])	securin degradation (HeLa cells [1])	amount of the total cellular SCC1 associated with chromatin (HeLa cells [2]) [%]	cleavage assay using purified Scc1 (Western blot, anti-FLAG) [3]	cleavage assay using purified Scc1 (Western blot, anti-FLAG) [4]	Scc1p cleavage in Esp1-containing extracts (chromatin substrate) [5]	Scc1p cleavage and dissociation from chromatin in vitro (Western blot of chromatin and supernatant fractions) [6]	Scc1p cleavage in Esp1-containing extracts (chromatin substrate) [7]	Scc1p cleavage in the Esp1 assay (chromatin substrate) [8]
COC(=O)Nc1nc2ccc(C(=O)c3cccs3)cc2[nH]1 [nocodazole]	no cleavage of SCC1 could be observed	not degraded	13						
B1				Both unphosphorylated and phosphorylated purified Scc1 were cleaved in an Esp1-dependent manner in vitro	the efficiency of cleavage was much greater when Scc1 was in the mitotically phosphorylated state	HA tagged double mutant protein was no longer cleaved when incubated in Esp1-containing extracts	most disappears from the chromatin fraction upon incubation with extracts containing high levels of wild type Esp1 protein	the myc tagged wild type protein was efficiently cleaved	cleavage at site 268 was indeed eliminated by the aspartic acid mutation. However, the mutated protein was still cleaved in an Esp1-dependent manner
